Results: US12692533B2, “Methods and compositions for noninvasive detection of organ transplant rejection” (Georgia Tech Research Corporation, priority 2016, dated 2026)
Square brackets hold non-standard residues; d marks the D form. Ends that are not written are not given here.

Experiments:
murine Granzyme B = biological target: T1, murine Granzyme B (Mus musculus, UniProt P04187); assay: In vitro protease cleavage assay with recombinant GzmB; type: biochemical; settings: substrate conjugated to IONPs, library of 13 candidate substrates
T1 construct: purchased Peprotech
T1 sequence (P04187 21-247): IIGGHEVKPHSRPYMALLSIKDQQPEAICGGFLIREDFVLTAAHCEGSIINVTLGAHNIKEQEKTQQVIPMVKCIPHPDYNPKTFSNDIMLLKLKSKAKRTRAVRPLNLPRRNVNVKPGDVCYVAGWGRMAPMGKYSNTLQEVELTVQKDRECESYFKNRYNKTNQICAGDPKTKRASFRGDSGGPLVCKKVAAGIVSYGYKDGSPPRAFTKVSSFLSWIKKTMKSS
Procedure: (§1) Synthetic biomarkers (6 nM by NP, 300 nM by peptide) were incubated in PBS+1% bovine serum albumin (BSA; Sigma) at 37° C. with murine Granzyme B (0.2 μM, Peprotech), human thrombin (HaemTech), mouse thrombin (HaemTech), mouse plasmin (HaemTech), Clr (Sigma), Cls (Sigma), Factor D (Sigma), Factor I (Sigma), MASP2 (Biomatik). Sample fluorescence were measured for 60 minutes using Cytation 5 plate reader (Biotek). To optimize GzmB substrate, a library of potential substrates was synthesized by Tufts University Core Facility peptide synthesis service and conjugated to IONPs. Cleavage assays of nanoparticles decorated with these substrates with recombinant GzmB were performed, and data was fitted to compare initial cleavage velocities. To determine Michaelis-Menten constants, cleavage assays with GzmB were performed at different substrate concentrations. To initiate coagulation cascade, citrated plasma was mixed with synthetic biomarkers before addition of calcium chloride (15 mM, Sigma). To initiate complement activation, Control Human Serum (Sigma) was mixed with synthetic biomarkers before addition of Heat Aggregated Gamma Globulin (HAGG; Quidel) per the manufacturer's protocol. After measuring fluorescence for 1 hour, supernatants were collected and measured for formation of MAC complex using Micro Vue CH50 Eq EIA Kit (Quidel).

GzmB [1] = biological target: T2, GzmB (Mus musculus, UniProt P04187); assay: Tracking in vivo GzmB cleavage by near infra-red imaging in skin graft mice
T2 construct: cleaved by GzmB secreted by alloreactive T cells; endogenous in cells; host or cells: alloreactive CD8 T cells of C57BL/6 recipient mice bearing BALB/c skin grafts
T2 sequence (P04187 21-247): T1 sequence (P04187 21-247)
Procedure: (§2) To track cleaved fragments after in vivo GzmB cleavage, on day 7 post-transplant, VT750-labelled synthetic biomarkers (10 nmol by peptides) were administered to skin graft mice. Major organs were excised and imaged with Odyssey CLx Imaging System (LI-COR) while mouse bladders were imaged with IVIS Spectrum CT Imaging System (PerkinElmer) after 90 minutes. All urinalysis experiments were done in paired setup. 4 days before and 7 days after surgeries, skin graft mice were administered with FITC-labelled Synthetic biomarkers (10 nmol by peptides). Urine were collected after 90 minutes by placing mice over 96-well plates. FITC in urine was purified by a magnetic separation assay using Dynabeads (Thermo, 65501) coated with anti-FITC (GeneTex, GTX10257). Fluorescent signals were measured with Cytation 5 Plate Reader (Biotek). Concentrations of FITC were calculated using a free FITC ladder and normalized with urine volume. For CD8 depletion study, mice were given anti-mouse CD8 (clone: 53-6.7, BioXCell) for 3 consecutive days following with booster shots every 3 days after. Flow cytometry analysis of splenocytes and lymphocytes were performed with anti-mouse CD3 (clone: 17A2, Biolegend), anti-mouse CD4 (clone: RM4-5, Biolegend), anti-mouse CD8 (clone: KT15, Serotec) to confirm success of depletion.

[2] = system: proteases in the coagulation and complement cascades; assay: Specificity: cleavage by key recombinant proteases and activated coagulation and complement cascades; type: biochemical; settings: recombinant proteases; plasma + Ca2+; serum + HAGG; fluorescence
Procedure: as §1

[3] = system: T cells from skin graft mice with BALB/c donor splenocytes; assay: NP assay sensing alloreactive T cell killing (coculture supernatants); type: cell-based, mouse; settings: cocultures containing T cells from mice bearing allografts
Procedure: (§3) To sense transgenic T cell killing, CD8+OT1 T cells were isolated and activated per above protocol. On day 5 post activation, 1x10^6 OT1 T cells were coincubated with 1x10^6 EL4 or EG7-OVA target cells for 2 hours at 37° C. Coculture supernatants were mixed with synthetic biomarkers (2 nM by NP, 100 nM by peptides) and fluorescence were monitored for 1 hour at 37° C. To sense alloreactive T cell killing, on day 7 post-transplant, CD8 T cells were isolated from splenocytes and lymphocytes of skin graft mice. 5×10^5 CD8 T cells from skin graft mice were restimulated with 5×10^5 splenocytes from BALB/c Mice (Charles River) for 6 hours at 37° C. Coculture supernatants were mixed with synthetic biomarkers (2 nM by NP, 100 nM by peptides) and fluorescence were monitored for 2 hours at 37° C.

[4] = in vivo
GzmB [5] = biological target: T2, GzmB; assay: Urinary prediction of acute cellular rejection in skin graft mouse model; type: in vivo, mice
Procedure: as §2

[6] = system: membrane attack complex (MAC); type: biochemical, Human
Procedure: as §1

[7] = in plasma, DLS
Excerpt: DLS measurements of synthetic biomarkers were done in PBS or mouse plasma at RT using Zetasizer Nano ZS (Malvern).

[8] = system: OT1 T cells killing EG7-OVA target cells
Procedure: as §3

For AIEFDSGc (AIEFDSG[dC]), the “rate of cleavage by recombinant GzmB” value (murine Granzyme B) was “high rate of cleavage” and the “rate of cleavage by recombinant GzmB” value (murine Granzyme B; listed as AIEFD|SGc) was “highest rate of cleavage”.
For “synthetic biomarkers: PEG-coated iron oxide nanoparticles conjugated with GzmB peptide substrates carrying a fluorescent reporter (AIEFDSG[dC]; not fully specified; printed as AIEFDSGc; also: conjugated to PEG-coated iron oxide nanoparticle via Cys thiol and SIA, FITC reporter, position not given here)”, the “full body imaging bladder fluorescent signals” value (GzmB [1]; allograft vs isograft mice) was “only detected fluorescent signals from the bladders of allograft mice”, the “GzmB activity (fluorescent signal) in kidney, allograft mice with respect to isograft mice” value (GzmB [1]; day 7 post-transplant) was 3 fold and the “activation by proteases in the coagulation and complement cascades” value [2] was “not activated”. For the same substance, the activation kinetics [3] was “Increased activation kinetics”, the tolerability [4] was “well tolerated” and the “ROC area under the curve (AUC)” value (GzmB [5]; accepting isografts vs rejecting allografts) was 0.969. For the same substance, the “post-graft urine signals compared to pre-graft signals” value (GzmB [5]; allograft mice, day 7 vs day -4) was “more than 2 fold”, the “post-graft urine signals with respect to pre-graft signals” value (GzmB [5]; naïve mice, isograft mice, allograft mice depleted of CD8 T cells) was “did not detect significant elevation” and the “formation of membrane attack complex (MAC)” value [6] was “not detected”. The Z-average [7] was 47 nm, the “sensing of cytotoxic signal (fluorescence)” value [8] was “amplified cytotoxic signal” and the “correlation of initial velocity of probe activation with secretory GzmB” value ([8]; coculture supernatant) was “strongly correlated”.
